K0.5 (apparent microtubule dissociation constant) data for one substance are collected here from PMC4383081.

This assay has as its target microtubules polymerised from bovine brain tubulin (taxol-stabilised) (bovine) (UniProt Q6B856). As to the kind of experiment: stopped-flow mant-ADP release kinetics; kinesin·mant-ADP (1:1) mixed with varying microtubule concentrations plus MgATP, 298 K; fitted rate constants against microtubule concentration; apparent.

On to “N255K point mutant of the human monomeric kinesin K349 construct (from UniProt P33176 1-349) (domain or fragment)”, for which the K0.5 (apparent microtubule dissociation constant) is 21.3 µM.
